B1: His-FlgN (natural protein, Salmonella enterica serovar Typhimurium, UniProt P0A1J7 1-140, looked up)
chain: MTRLSEILDQMTTVLNDLKTVMDAEQQQLSVGQINGSQLQRITEEKSSLLATLDYLEQQRRLEQNAQRSANDDIAERWQAITEKTQHLRDLNQHNGWLLEGQIERNQQALEVLKPHQEPTLYGADGQTSVSHRGGKKISI
B2: GST-FliJ(Δ13–24) (natural protein, Salmonella enterica serovar Typhimurium, UniProt P0A1K1 1-147, looked up)
chain: MAQHGALETLKDLGEMRRGCQQAEEQLKMLIDYQNEYRSNLNTDMGNGIASNRWINYQQFIQTLEKAIEQHRLQLTQWTQKVDLALKSWREKKQRLQAWQTLQDRQTAAALLAENRMDQKKMDEFAQRAAMRKPE

Experiments:
GST-FliJ (purified) = target: T1, GST-FliJ (purified) (Salmonella enterica serovar Typhimurium, UniProt P0A1K1 1-147); experiment: SPR
T1 sequence (looked up): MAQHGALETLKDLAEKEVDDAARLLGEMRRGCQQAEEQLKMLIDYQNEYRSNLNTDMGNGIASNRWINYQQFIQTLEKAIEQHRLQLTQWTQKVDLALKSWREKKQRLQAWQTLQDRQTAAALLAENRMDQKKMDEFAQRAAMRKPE

His-FlgN = target: B1; experiment: SPR

Binder	Kd (GST-FliJ (purified))	Kd (His-FlgN)
B1	27.4 ± 13 µM	
B2		7.74 ± 0.12 µM

Reference: article doi:10.1101/2020.07.14.203299 (bioRxiv, 2020)
